Entries after “also recorded” stand apart in the source; their conditions may differ.

One data set relates to HCE cells. Kind of data set: Divalent cation sensitivity of βig-h3-mediated adhesion. The format is cell-based, human. Particulars: cells incubated 30 min with divalent cations in HBS. Here is the method:
To analyze the divalent cation sensitivity of βig-h3-mediated adhesion, cells were suspended in HEPES-buffered saline (HBS) (150 mM NaCl, 25 mM HEPES, 2 mM EDTA, pH 7.4) at a density of 2×10^5 cells/ml and incubated at 37° C. for 30 min. Then, they were washed twice in HBS and resuspended in the same buffer. Aliquots of cells (50 μl) were then added to the microculture plate wells and incubated for 30 min at 37° C. in a humidified atmosphere of 5% CO2 with 50 μl aliquots of HBS containing divalent cations (MnCl2, MgCl2 or CaCl2) at a concentration twice as large as the final concentration. Subsequently, they were plated on ligand-coated dishes to perform the adhesion assay.

Data set [1] can be described thus: Expression form and non-denaturing gel electrophoresis of recombinant proteins. The data set is classed as physicochemical. Particulars: electrophoresis using non-denaturing gel. Here is the method:
The recombinant proteins containing at least one 4th domain, such as βig3-D-IV, 2X, 3X and 4X were prepared as follows. A DNA fragment encoding to amino acid 498-637 corresponding the 4th domain was obtained by PCR and the PCR products were blunt-ended by Klenow enzyme. This blunt-ended cDNA fragment was inserted to the EcoRV site of the pβig-h3 D-IV, which contained the 4th domain of βig-h3, and the resulting expression vector was named pβI-h3 D-IV 2X. The insert of the pβig-h3 D-IV 2X was excised by digestion with EcoRV and XhoI and blunt-ended by treatment with Klenow, followed by inserting the blunt-ended fragment into EcoRV sites of pβig-h3 D-IV and pβig-h3 D-IV 2X. The resulting expression vectors were named pβig-h3 D-IV 3X and pβig-h3 D-IV 4X. Expression of all recombinant proteins was induced for 3 hours in the presence of 1 mM IPTG and isolated by use of Ni-NTA resin (Qiagen).

Data set [2] deals with Human corneal epithelial (HCE) cells. Briefly: HCE cell adhesion and spreading assay on protein-coated plates. The data set is classed as cell-based. Particulars: HCE cells on coated recombinant protein. Here is the method:
Human corneal epithelial (HCE) cells used in this assay were cultured in DMEM ([…], Gibco BRL) supplemented with 15% fetal bovine serum, Gentamicin (40 μg/ml), insulin (5 μg/ml), cholera toxin (0.1 μg/ml) and human epidermal growth factor (hEGF) at 37° C. in 5% CO2.
The cell adhesion assay was performed as follows. First, the recombinant βig-h3 proteins or other extracellular matrix proteins were let to adhere to the bottoms of 96-well microculture plates (Falcon) by incubation at 37° C. for 1 hour and blocked with PBS containing 0.2% BSA. The coated extracellular matrix proteins were human plasma vitronectin (Promega), purified human plasma fibronectin (pFN), chicken collagen types I and II (Chemicon International Inc.), bovine collagen types IV and VI (Chemicon), mouse laminin (Chemicon), and bovine serum albumin (BSA) (Sigma). Cells were trypsinized and suspended in the culture media at a density of 2×10^5 cells/ml. 0.1 ml of the cell suspension was added to each well of the plates coated with the recombinant proteins.
Following incubation at 37° C. for 1 hour, unattached cells were removed by rinsing with PBS. Attached cells were incubated for 1 hour at 37° C. in 50 mM citrate buffer, pH 5.0, containing 3.75 mM p-nitrophenol-N-acetyl 1-β-D-glycosaminide as a hexosaminidase substrate and 0.25% Triton X-100, followed by the addition of 50 mM glycine buffer, pH 10.4, containing 5 mM EDTA to block the enzyme activity. A measurement was made of absorbance at 405 nm in a Multiskan MCC/340 microplate reader.
To determine cell area as an index for cell adhesion activity, 4×10^4 cells were applied to substrates in 48-well culture plates. The attached cells were fixed weith 8% glutaraldehyde (Sigma) and then stained with 0.25% Crystal Violet (Sigma) in 20% methanol. Measurement of cell areas was performed by Image-Pro plus software (Media Cybernetics). Experiments were repeated in triplicate with 200 or 300 measurements per site for each experiment. Data is reported as the mean area at specific time points±standard error of mean.

Data set [3] concerns dermal whole layer wounds on the backs of rats. Kind of data set: Wound healing with ointment bases on dermal whole layer wounds (2 cm) of rats. The conditions noted are these: for wound area: ointment 100 μg/ml, 1 g per day, mean. The arrangement: key to Formation grade of collagenous fibers at wound: 0: negative; 1+: insignificant; 2+: scatteringly formed; 3+: very dense; key to Re-ephithelialization of Wound (grade): 0: zero was set for the formation of no epithelial layers; 1+ for initiation of epithelialization; 2+ for incomplete epithelial layer structure; 3+ for complete epithelial layer structure. The data set is classed as in vivo, rat. Here is the method:
To compare wound healing activity between the recombinant βig-h3 protein His-β-b, which contains all of the four fas-1 domains, like native βig-h3 protein, and the recombinant βig-h3 protein βigh3-D-IV, which contains the 4th domain alone, ointment bases comprising the recombinant proteins were tested as follows.
Four dermal whole layer wounds, each 2 cm in diameter, were made on the backs of rats and divided into test groups 1-A, 1-B, 1-C and 1-D according to the ointment applied thereto.
1-A: coated at a dose of 1 gm per day with an ointment base combined with no materials.
1-B: coated at a dose of 1 gm per day with an ointment in which fibronectin was combined at a concentration of 100 μg/ml with a base.
1-C: coated at a dose of 1 g per day with an ointment in which Hisβ-b protein was combined at a concentration of 100 μg/ml with a base.
1-D: coated at a dose of 1 g per day with an ointment in which βigh3-D-IV protein was combined at a concentration of 100 μg/ml with a base.
The backs of etherized rats were shaved, followed by sterilizing the shaved region with betadin solution. In test group 1, the back of each rat was cut by use of a No. 15 surgical blade to form four circular wounds with a diameter of 2 cm penetrating the whole dermal layers. Ointments for test groups 1-A, 1-B, 1-C and 1-D were applied at an amount of about 1 g to the wounds which were then covered with a synthetic dressing (Tegaderm® 3M) and lightly bandaged. Application of ointments was performed once every day.
With a base of an aqueous material (SamA base), each of the ointments contained, per 1 g, spermaceti 38 mg, stearyl alcohol 116 mg, polyethylglycol 38 mg, conc. glycerin 192 mg, ethanol 23 mg, […], ethyl paraoxybenzoate 0.87 mg, butyl paraoxybenzoate 0.12 mg, and purified water.
First, morphologies of wounds were observed. The same scale was positioned near each wound and pictures were taken at the same distance from each wound. Pictures were scanned in a computer and used to measure areas of the wounds with the aid of NIH image analysis system (Bio-Optics). To take the pictures, the muscle was completely relaxed by etherizing the rats. Measurements were performed once every other day until the 22nd day. For comparing test groups, the measured values were analyzed according to ANOVA test and Scheffer's test.
Histological analysis was conducted under an optical microscope. Biopsies of wound sites were taken at days 3, 7, 10, 14 and 20, and fixed in 10% formalin and solidified with paraffin. 6 μm slices of the samples were dyed with hematoxylin-eosin (H&E) and Masson's trichrome before observation under a microscope. Wound healing effects according to time of each test material were evaluated through re-epithelialization and formation of collagenous fibers. In the case of re-epithelialization, epithelial formation was semi-quantified in such a way that zero was set for the formation of no epithelial layers, 1+ for initiation of epithelialization, 2+ for incomplete epithelial layer structure, and 3+ for complete epithelial layer structure. Regarding comparison among test groups and differences according to time within each group, measured values were statistically analyzed using ANOVA test and Scheffe's test. As for collagenous fiber formation, it was graded as 1+ for insignificant formation of collagenous fibers as observed with trichrome dye, 2+ for scatteringly spaced collagenous fibers, and 3+ for dense collagenous fibers.

For the molecule `[Ca+2].[Cl-].[Cl-]` [Ca^2+, CaCl2], the “promotion of cell adhesion to βig-h3 by divalent cations” value in the data set with HCE cells was “only marginally”.
Turning to `[Cl][Mn][Cl]` [Mn^2+, MnCl2], the “promotion of cell adhesion to βig-h3 by divalent cations” value in the data set with HCE cells is reported as “strongly promoted”.

B1: βig-h3 D-IV: recombinant polypeptide, 4th fas-1 domain of βig-h3, amino acids 498-637 (SEQ ID NO:26) (protein)
chain: LTPPMGTVMDVLKGDNRFSMLVAAIQSAGLTETLNREGVYTVFAPTNEAFRALPPRERSRLLGDAKELANILKYHIGDEILVSGGIGALVRLKSLQGDKLEVSLKNNVVSVNKEPVAEPDIMATNGVVHVITNVLQPPAN
modifications: left off: small tags and cut ends
Take B1: in data set [1], the polymer formation entry is “did not form polymers”. In addition, the “HCE cell adhesion activity” value in data set [2] was “equally active compared to the wild type βig-h3; also recorded: high cell attachment activity”. Besides, the wound area is 3.15 in data set [3] (Day 0); 2.62 cm² in data set [3] (Day 2); 2.37 in data set [3] (Day 4); 1.98 in data set [3] (Day 6); 1.51 cm² in data set [3] (Day 8); 0.98 cm² in data set [3] (Day 10). The wound area was 0.44 in data set [3] (Day 12); 0.22 in data set [3] (Day 14); 0.20 in data set [3] (Day 16); 0.18 in data set [3] (Day 18); 0.13 in data set [3] (Day 20); 0.06 in data set [3] (Day 22). Further, the “Formation grade of collagenous fibers at wound” value was 1+ in data set [3] (Day 3); “+1” in data set [3] (Day 7, listed as 1-D); 1+ in data set [3] (Day 7, listed as βigD-IV); 2+ in data set [3] (Day 10); 3+ in data set [3] (Day 14); 3+ in data set [3] (Day 20). Besides, the “Re-ephithelialization of Wound (grade)” value in data set [3] (Day 3) was 0; in data set [3] (Day 7) it was 0; in data set [3] (Day 10), 1+; in data set [3] (Day 14) it was 2+; in data set [3] (Day 20) it was 3+. In data set [3] (optical microscope), this molecule displayed a completion of re-epithelialization of 20 days.

Source of the values: patent US7396682B2, “Method for cell adhesion and wound healing” (Regen Biotech, Inc., priority 2000, dated 2008).
